Data on one molecule can be found in US20120020985A1 (MEDICAL RESEARCH COUNCIL, published 2012).

Holding throughout (test): ELISA, receptor coated at 2 ug/ml, streptavidin-HRP, A405
For orientation: In an ELISA, binding on a coated surface is turned into a signal by an enzyme label.

In test [1] the target is T1, rhIL-17RD (Sef) (human, UniProt Q8NFM7 27-299, limits assumed).
T1 construct: Bought from R&D Systems, catalog 2275-IL; also called human IL-17RD; IL-17D receptor
T1 sequence (looked up): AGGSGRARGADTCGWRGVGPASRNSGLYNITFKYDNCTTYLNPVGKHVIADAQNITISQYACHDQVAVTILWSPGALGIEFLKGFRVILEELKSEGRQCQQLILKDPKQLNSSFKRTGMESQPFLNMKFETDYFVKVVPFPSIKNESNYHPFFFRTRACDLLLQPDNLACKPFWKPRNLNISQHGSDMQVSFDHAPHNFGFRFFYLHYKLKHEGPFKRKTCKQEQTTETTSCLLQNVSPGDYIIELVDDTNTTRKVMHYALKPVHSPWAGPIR
The procedure: (§1) In brief, ELISA plates were coated with IL-17R-family members; IL-17RA, IL-17BR, IL-17RC or IL-17RD, or IL-13Rα control, at 2 μg/ml, incubated overnight at 4° C., washed in PBS/0.05% tween and blocked in PBS/10% FCS at room temperature for 4 hrs. Biotinylated D9.2 binding was detected using streptavidin-HRP and ELISA development solution and measuring absorbance at 405 nm.
(§2) ELISA plates were coated with IL-17R-family members; IL-17RA, IL-17BR, IL-17RC, or IL-17RD, or IL-13Rα control (R&D Systems) at 2 μg/ml overnight at 4° C. before washing in PBS/0.05% tween and blocking in PBS/10% FCS at room temperature for 4 hrs. Biotinylated D9.2 was added at 1 μg/ml in PBS/10% FCS and incubated overnight at 4° C. Plates were then washed before streptavidin-HRP was added and incubated for 1 hr at room temperature. Plates were then washed a final time before adding ELISA development solution and measuring the absorbance at 405 nm.

The target in test [2] is T2, rmIL-17RD (Sef) (mouse, UniProt Q8JZL1 27-299, limits assumed).
T2 construct: Bought from R&D Systems, catalog 2276-ML; also called mouse IL-17RD; IL-17D receptor
T2 sequence (looked up): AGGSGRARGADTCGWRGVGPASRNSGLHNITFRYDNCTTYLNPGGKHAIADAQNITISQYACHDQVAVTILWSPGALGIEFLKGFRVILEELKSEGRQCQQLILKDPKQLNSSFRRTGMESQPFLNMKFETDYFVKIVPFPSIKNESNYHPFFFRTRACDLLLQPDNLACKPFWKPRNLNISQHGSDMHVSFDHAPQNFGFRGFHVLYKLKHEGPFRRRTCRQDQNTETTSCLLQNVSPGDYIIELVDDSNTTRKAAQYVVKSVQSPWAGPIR
The protocol:
as §1, §2

For test [3], the target named is T3, rhIL-17RA-Fc (human, UniProt Q96F46 33-320).
T3 construct: Bought from R&D Systems, catalog 177-IR; also called human IL-17RA; IL-17A receptor; not shown: Fc portion, not described
T3 sequence (looked up): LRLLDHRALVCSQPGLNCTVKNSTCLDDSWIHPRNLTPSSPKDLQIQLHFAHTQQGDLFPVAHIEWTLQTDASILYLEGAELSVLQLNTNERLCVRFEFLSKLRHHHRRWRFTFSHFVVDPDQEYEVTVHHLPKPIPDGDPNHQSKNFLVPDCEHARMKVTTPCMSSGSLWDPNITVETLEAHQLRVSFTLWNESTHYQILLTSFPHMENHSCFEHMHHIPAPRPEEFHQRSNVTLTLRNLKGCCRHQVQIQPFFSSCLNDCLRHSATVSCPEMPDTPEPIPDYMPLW
The procedure:
as §1, §2

Test [4] addresses T4, rmIL-17RA-Fc (mouse, UniProt Q60943 32-322).
T4 construct: Bought from R&D Systems, catalog 4481-MR; also called mouse IL-17RA; IL-17A receptor; not shown: Fc portion, not described
T4 sequence (looked up): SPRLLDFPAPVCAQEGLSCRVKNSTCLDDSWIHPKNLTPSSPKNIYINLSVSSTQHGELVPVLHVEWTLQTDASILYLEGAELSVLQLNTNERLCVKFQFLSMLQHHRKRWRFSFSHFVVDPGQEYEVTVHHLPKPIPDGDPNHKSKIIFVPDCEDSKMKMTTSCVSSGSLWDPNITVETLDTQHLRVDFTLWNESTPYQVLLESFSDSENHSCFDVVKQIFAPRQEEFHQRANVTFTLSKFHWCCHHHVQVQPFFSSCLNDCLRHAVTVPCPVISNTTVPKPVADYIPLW
The procedure:
as §1, §2

In test [5] the target is T5, rhIL-17RC (human, UniProt Q8NAC3-2 21-467, limits assumed).
T5 construct: Bought from R&D Systems, catalog 2269-IL; also called human IL-17RC; IL-17C receptor
T5 sequence (looked up): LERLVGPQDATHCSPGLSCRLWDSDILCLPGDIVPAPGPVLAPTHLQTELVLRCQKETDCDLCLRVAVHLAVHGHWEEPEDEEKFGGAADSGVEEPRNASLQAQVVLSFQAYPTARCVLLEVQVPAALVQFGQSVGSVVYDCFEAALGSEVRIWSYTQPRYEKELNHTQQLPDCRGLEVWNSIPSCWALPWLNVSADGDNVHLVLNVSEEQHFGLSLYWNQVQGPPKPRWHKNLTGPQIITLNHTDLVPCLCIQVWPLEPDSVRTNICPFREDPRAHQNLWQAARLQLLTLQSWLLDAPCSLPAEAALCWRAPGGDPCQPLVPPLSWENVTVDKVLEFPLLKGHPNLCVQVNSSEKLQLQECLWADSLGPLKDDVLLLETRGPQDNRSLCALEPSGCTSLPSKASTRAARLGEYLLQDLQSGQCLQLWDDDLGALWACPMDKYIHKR
The protocol: as §1, §2

In test [6] the target is T6, rmIL-17RC (mouse, UniProt Q8K4C2 22-464, limits assumed).
T6 construct: Bought from R&D Systems, catalog 2270-ML; also called mouse IL-17RC; IL-17C receptor
T6 sequence (looked up): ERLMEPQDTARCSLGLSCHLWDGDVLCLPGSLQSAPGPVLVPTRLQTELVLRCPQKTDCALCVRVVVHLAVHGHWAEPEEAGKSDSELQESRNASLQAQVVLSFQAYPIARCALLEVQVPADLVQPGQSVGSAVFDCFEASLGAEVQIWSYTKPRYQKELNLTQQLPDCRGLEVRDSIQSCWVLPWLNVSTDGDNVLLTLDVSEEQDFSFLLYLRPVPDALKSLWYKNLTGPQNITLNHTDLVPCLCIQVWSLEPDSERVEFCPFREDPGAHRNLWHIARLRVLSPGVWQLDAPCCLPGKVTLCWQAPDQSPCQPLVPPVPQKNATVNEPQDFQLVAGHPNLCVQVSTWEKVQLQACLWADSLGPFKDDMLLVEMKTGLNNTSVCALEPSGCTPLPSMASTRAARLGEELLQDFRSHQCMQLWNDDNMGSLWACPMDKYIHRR
The protocol: as §1, §2

B1: anti-IL-17BR clone D9.2 (antibody, V domains shown)
VH: QVQLQQPGAELVRPGASVKLSCKTSGYTFISYWMNWVKQGGPEQGLEWIGRIDPYDSEIQYNQKFKDKAILTVDKSSSAAYMQLISLTSEDSAVYYCARSGGFDWFAYWGQGTLVTVS
VL: DIQMTQSPASLSVSVGETVTITCRASENINSNLAWYQQKKGKSPQLLVYDVTNLADGVPSRFSGSGSGTQYSLKINSLQSEDFGSYYCQHFWRPPYTFGGGTNLEIK
notes: Mouse monoclonal from a hybridoma; heavy chain amplified with an IgG1 constant region primer and light chain with a kappa primer (mouse IgG1 kappa); also called mouse monoclonal antibody D9.2; D9.2 antibody clone
With B1, the binding result in test [1], in test [2], in test [3], in test [4], in test [5] and in test [6] was “no binding (tested: 1 ug/ml biotinylated D9.2)” each time.
